Measurements published in IntAct's records for PubMed 20961850.

B1: Phospholipid-transporting ATPase IC (Homo sapiens), O43520 (parent)
chain: MSTERDSETTFDEDSQPNDEVVPYSDDETEDELDDQGSAVEPEQNRVNREAEENREPFRKECTWQVKANDRKYHEQPHFMNTKFLCIKESKYANNAIKTYKYNAFTFIPMNLFEQFKRAANLYFLALLILQAVPQISTLAWYTTLVPLLVVLGVTAIKDLVDDVARHKMDKEINNRTCEVIKDGRFKVAKWKEIQVGDVIRLKKNDFVPADILLLSSSEPNSLCYVETAELDGETNLKFKMSLEITDQYLQREDTLATFDGFIECEEPNNRLDKFTGTLFWRNTSFPLDADKILLRGCVIRNTDFCHGLVIFAGADTKIMKNSGKTRFKRTKIDYLMNYMVYTIFVVLILLSAGLAIGHAYWEAQVGNSSWYLYDGEDDTPSYRGFLIFWGYIIVLNTMVPISLYVSVEVIRLGQSHFINWDLQMYYAEKDTPAKARTTTLNEQLGQIHYIFSDKTGTLTQNIMTFKKCCINGQIYGDHRDASQHNHNKIEQVDFSWNTYADGKLAFYDHYLIEQIQSGKEPEVRQFFFLLAVCHTVMVDRTDGQLNYQAASPDEGALVNAARNFGFAFLARTQNTITISELGTERTYNVLAILDFNSDRKRMSIIVRTPEGNIKLYCKGADTVIYERLHRMNPTKQETQDALDIFANETLRTLCLCYKEIEEKEFTEWNKKFMAASVASTNRDEALDKVYEEIEKDLILLGATAIEDKLQDGVPETISKLAKADIKIWVLTGDKKETAENIGFACELLTEDTTICYGEDINSLLHARMENQRNRGGVYAKFAPPVQESFFPPGGNRALIITGSWLNEILLEKKTKRNKILKLKFPRTEEERRMRTQSKRRLEAKKEQRQKNFVDLACECSAVICCRVTPKQKAMVVDLVKRYKKAITLAIGDGANDVNMIKTAHIGVGISGQEGMQAVMSSDYSFAQFRYLQRLLLVHGRWSYIRMCKFLRYFFYKNFAFTLVHFWYSFFNGYSAQTAYEDWFITLYNVLYTSLPVLLMGLLDQDVSDKLSLRFPGLYIVGQRDLLFNYKRFFVSLLHGVLTSMILFFIPLGAYLQTVGQDGEAPSDYQSFAVTIASALVITVNFQIGLDTSYWTFVNAFSIFGSIALYFGIMFDFHSAGIHVLFPSAFQFTGTASNALRQPYIWLTIILAVAVCLLPVVAIRFLSMTIWPSESDKIQKHRKRLKAEEQWQRRQQVFRRGVSTRRSAYAFSHQRGYADLISSGRSIRKKRSPLDAIVADGTAEYRRTGDS
partner: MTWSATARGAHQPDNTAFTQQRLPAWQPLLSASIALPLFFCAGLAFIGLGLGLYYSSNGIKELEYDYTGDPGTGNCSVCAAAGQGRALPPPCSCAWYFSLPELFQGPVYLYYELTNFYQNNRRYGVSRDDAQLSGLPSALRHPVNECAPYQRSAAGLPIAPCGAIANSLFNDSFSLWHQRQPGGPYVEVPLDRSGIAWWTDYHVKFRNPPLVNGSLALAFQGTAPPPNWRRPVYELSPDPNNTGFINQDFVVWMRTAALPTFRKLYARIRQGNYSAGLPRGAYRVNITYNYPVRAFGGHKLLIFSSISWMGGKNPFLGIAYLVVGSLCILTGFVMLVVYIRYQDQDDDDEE
B2: Phospholipid-transporting ATPase ID (Homo sapiens), P98198 (parent)
chain: MTVPKEMPEKWARAQAPPSWSRKKPSWGTEEERRARANDREYNEKFQYASNCIKTSKYNILTFLPVNLFEQFQEVANTYFLFLLILQLIPQISSLSWFTTIVPLVLVLTITAVKDATDDYFRHKSDNQVNNRQSQVLINGILQQEQWMNVCVGDIIKLENNQFVAADLLLLSSSEPHGLCYIETAELDGETNMKVRQAIPVTSELGDISKLAKFDGEVICEPPNNKLDKFSGTLYWKENKFPLSNQNMLLRGCVLRNTEWCFGLVIFAGPDTKLMQNSGRTKFKRTSIDRLMNTLVLWIFGFLVCMGVILAIGNAIWEHEVGMRFQVYLPWDEAVDSAFFSGFLSFWSYIIILNTVVPISLYVSVEVIRLGHSYFINWDKKMFCMKKRTPAEARTTTLNEELGQVEYIFSDKTGTLTQNIMVFNKCSINGHSYGDVFDVLGHKAELGERPEPVDFSFNPLADKKFLFWDPSLLEAVKIGDPHTHEFFRLLSLCHTVMSEEKNEGELYYKAQSPDEGALVTAARNFGFVFRSRTPKTITVHEMGTAITYQLLAILDFNNIRKRMSVIVRNPEGKIRLYCKGADTILLDRLHHSTQELLNTTMDHLNEYAGEGLRTLVLAYKDLDEEYYEEWAERRLQASLAQDSREDRLASIYEEVENNMMLLGATAIEDKLQQGVPETIALLTLANIKIWVLTGDKQETAVNIGYSCKMLTDDMTEVFIVTGHTVLEVREELRKAREKMMDSSRSVGNGFTYQDKLSSSKLTSVLEAVAGEYALVINGHSLAHALEADMELEFLETACACKAVICCRVTPLQKAQVVELVKKYKKAVTLAIGDGANDVSMIKTAHIGVGISGQEGIQAVLASDYSFSQFKFLQRLLLVHGRWSYLRMCKFLCYFFYKNFAFTMVHFWFGFFCGFSAQTVYDQYFITLYNIVYTSLPVLAMGVFDQDVPEQRSMEYPKLYEPGQLNLLFNKREFFICIAQGIYTSVLMFFIPYGVFADATRDDGTQLADYQSFAVTVATSLVIVVSVQIGLDTGYWTAINHFFIWGSLAVYFAILFAMHSNGLFDMFPNQFRFVGNAQNTLAQPTVWLTIVLTTVVCIMPVVAFRFLRLNLKPDLSDTVRYTQLVRKKQKAQHRCMRRVGRTGSRRSGYAFSHQEGFGELIMSGKNMRLSSLALSSFTTRSSSSWIESLRRKKSDSASSPSGGADKPLKG
partner: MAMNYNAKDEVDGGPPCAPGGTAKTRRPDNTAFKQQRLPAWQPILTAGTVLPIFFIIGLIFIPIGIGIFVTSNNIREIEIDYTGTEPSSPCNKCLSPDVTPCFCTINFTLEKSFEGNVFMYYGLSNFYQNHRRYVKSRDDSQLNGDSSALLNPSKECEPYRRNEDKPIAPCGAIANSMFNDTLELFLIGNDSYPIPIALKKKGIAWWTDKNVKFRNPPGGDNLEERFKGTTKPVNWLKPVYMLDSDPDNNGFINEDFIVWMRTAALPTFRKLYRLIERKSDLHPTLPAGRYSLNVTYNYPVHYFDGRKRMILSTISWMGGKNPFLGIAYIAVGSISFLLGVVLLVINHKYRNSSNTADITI
B3: Phospholipid-transporting ATPase ID (Homo sapiens), P98198 (parent)
chain: B2 chain
partner: B1 partner
B4: Phospholipid-transporting ATPase IC (Homo sapiens), O43520 (parent)
chain: B1 chain
partner: B2 partner

Variants of: B1
Details: with cc50b_human TMEM30B

Variant | effect of a mutation on the interaction
D454N | decreasing interaction strength

Variants of: B2
Details: with cc50a_human TMEM30A

Variant | effect of a mutation on the interaction
D411N | decreasing interaction strength

Variants of: B3
Details: with cc50b_human TMEM30B

Variant | effect of a mutation on the interaction
D411N | with no effect

Variants of: B4
Details: with cc50a_human TMEM30A

Variant | effect of a mutation on the interaction
D454N | decreasing interaction strength
